Experimental data taken from patent publication US20110289632A1, “METHYLKETONE SYNTHASE, PRODUCTION OF METHYLKETONES IN PLANTS AND BACTERIA” (The Regents of the University of Michigan, priority 2009, published 2011).

Key:
[1] = Treatment of spent medium of ShMKS2-expressing E. coli with purified ShMKS1; format: biochemical; conditions: 3 μg/mL final concentration, incubated 2 h prior to hexane extraction
Method: Moreover, the treatment with purified ShMKS1 seemed to favor an increase in 2-tridecanone over other methylketones (FIG. 18).
Aliquots (1 mL) of the spent medium of E. coli expressing ShMKS2, obtained by centrifuging the culture solution after the incubation time at 5,000 rpm for 15 min and collecting the solution without the cells, were treated in the following ways: 1. Incubated with 40 μl (3 μg) of purified MKS1 in phosphate buffer (12.5 mM NaH2PO4, 125 mM NaCl, 2 mM DTT, pH 6.8) for 2 hrs at 30° C. 3. Incubated at 75° C. for 30 min followed by 30 min at 30° C. 4. Incubated with 1 mL of 2M H2SO4 at 75° C. for 30 min followed by 30 min at 30° C. After the various treatments, 1 mL of hexane containing 5 ng/μL linalool as an internal standard was added and the resulting mixture was vortexed and centrifuged at 5000 rpm for 10 min. Two μL of the resulting extract were injected into the GC-MS for determination of methylketones. GC-MS and product analysis were performed as described by Ben-Israel et al, (2009) Multiple biochemical and morphological factors underlie the production of methylketones in tomato trichomes, Plant Physiology 151: 1952-1964.

E. coli cells = assay: GC-MS of methylketones in spent media of E. coli cells expressing ShMKS1, ShMKS2 or ShMKS2 (D79A); format: cell-based, Escherichia coli; conditions: with or without acid and heat treatment
Method: To test if expression of either ShMKS1 or ShMKS2 (without its transit peptide) in E. coli results in the formation of 3-ketoacids, we collected spent media of bacterial cells expressing each of them (by centrifuging out the cells at the end of the incubation period), heated the spent media at 75° C. for 30 min in the presence of 1 M sulfuric acid, extracted with hexane, then injected the hexane fraction in a GC-MS. […] On the other hand, the spent medium of E. coli cells expressing ShMKS2 contained 5.6±0.32 μg/μL of total methylketones, and the amount of methylketones increased […], to 40.7±2.1 μg/μL, after the spent medium was treated with acid and heat (FIG. 17).
The coding regions of ShMKS1 and ShMKS2 (minus the transit peptide-encoding region) were each amplified by PCR and inserted into the E. coli expression vector pEXP-TOPO-CT (Invitrogen). The expression vectors were introduced into E. coli BL21 Star (DE3) cells, and gene expression was induced by the addition of 0.5 mM IPTG after the culture optical density at 600 nm had reached 0.65. After induction with IPTG and growth at 18° C. overnight, the cells expressing ShMKS1 or ShMKS2 were centrifuged at 5000 rpm for 15 minutes, and 1-mL aliquots of the spent medium were placed in individual vials for further analysis. […]

3-ketomyristoyl-ACP = assay: In vitro thioesterase activity assay; format: biochemical
Method: To examine the potential thioesterase activity of ShMKS1 and ShMKS2 in vitro, we added 2.5 μg of each protein to a 500 μL solution of freshly prepared 3-ketomyristoyl-ACP. This protein-linked substrate was prepared using a sequential in vitro enzymatic system involving the addition of multiple starting materials and enzymes and the reaction allowed to proceed for 5 hr (see Examples, Materials, and Methods). Due to the highly unstable nature of 3-ketomyristoyl-ACP, this compound was not further purified but instead the solution in which it was synthesized was used as the “substrate solution” for qualitative in vitro thioesterase activity assays.
Aliquots of this substrate solution were incubated with buffer, ShMKS1, ShMKS2, or both ShMKS1 and ShMKS2 for 30 min at 23° C. […]
3-Ketomyristoyl-ACP was synthesized in a 500 μL reaction volume containing 1,3-bis(tris(hydroxymethyl)methylamino) propane (20 mM, pH 7.0), malonyl-CoA (0.2 mM), lauroyl-CoA (0.2 mM), ShACP (0.1 mM), EcFabD (10 μg) and MtFabH (10 μg). […] Hexane extracts were analyzed by GC-MS as described above. The values for heat-treated samples shown in FIG. 20 were corrected for loss of methylketones during the heating step, as determined by comparisons with standards.

B1: ShMKS1: methylketone synthase 1 from Solanum habrochaites glabratum (SEQ ID NO: 17); recombinant, 3-ketoacid decarboxylase (protein)
chain: MEKSMSPFVKKHFVLVHTAFHGAWCWYKIVALMRSSGHNVTALDLGASGINPKQALQIPNFSDYLSPLMEFMASLPANEKIILVGHALGGLAISKAMETFPEKISVAVFLSGLMPGPNIDATTVCTKAGSAVLGQLDNCVTYENGPTNPPTTLIAGPKFLATNVYHLSPIEDLALATALVRPLYLYLAEDISKEVVLSSKRYGSVKRVFIVATENDALKKEFLKLMIEKNPPDEVKEIEGSDHVTMMSKPQQLFTTLLSIANKYK
modifications: ShMKS1
notes: recombinant, 3-ketoacid decarboxylase
[1]
  levels of extractable methylketones vs spent medium treated with phosphate buffer alone: significantly higher
E. coli cells
  methylketones in spent medium: no methylketones
3-ketomyristoyl-ACP; 2.5 μg protein, 30 min at 23° C., directly extracted with hexane
  amount of 2-tridecanone vs buffer-incubated sample treated with acid and heat: slightly higher, but not significantly so
3-ketomyristoyl-ACP; 3-ketomyristoyl-ACP substrate solution
  in vitro thioesterase activity: little or no
